# T1: CXCL16 (UniProt Q9H2A7 Q9H2A7:30-118)
# T1 sequence: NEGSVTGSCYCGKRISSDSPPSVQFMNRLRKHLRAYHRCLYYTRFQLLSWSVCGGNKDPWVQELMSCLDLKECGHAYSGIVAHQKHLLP
# B1: 3' 10T FKN-S2 Amphiphile (ssDNA)
# DNA: GGGGTGGGTGGGGGGCACGTGTGGGGGCGGCCAGGGTGCTTTTTTTTTTT
# modifications: 3' C16 dialkyl tail
# B2: 3' C12 FKN-S2 Amphiphile (ssDNA)
# DNA: GGGGTGGGTGGGGGGCACGTGTGGGGGCGGCCAGGGTGCT
# modifications: 3' C12 spacer + C16 dialkyl tail
# B3: 5' No Spacer FKN-S2 Amphiphile (ssDNA)
# DNA: B2 DNA
# modifications: 5' C6 amino-linked C16 dialkyl tail
# B4: 3' PEG4 FKN-S2 Amphiphile (ssDNA)
# DNA: B2 DNA
# modifications: 3' PEG4 spacer + C16 dialkyl tail
# B5: 3' PEG24 FKN-S2 Amphiphile (ssDNA)
# DNA: B2 DNA
# modifications: 3' PEG24 spacer + C16 dialkyl tail
# B6: 3' No Spacer FKN-S2 Amphiphile (ssDNA)
# DNA: B2 DNA
# modifications: 3' C6 amino-linked C16 dialkyl tail
# B7: 3' C24 FKN-S2 Amphiphile (ssDNA)
# DNA: B2 DNA
# modifications: 3' C24 spacer + C16 dialkyl tail
# B8: 3' PEG8 FKN-S2 Amphiphile (ssDNA)
# DNA: B2 DNA
# modifications: 3' PEG8 spacer + C16 dialkyl tail
# B9: 3' 10A FKN-S2 Amphiphile (ssDNA)
# DNA: GGGGTGGGTGGGGGGCACGTGTGGGGGCGGCCAGGGTGCTAAAAAAAAAA
# modifications: 3' C16 dialkyl tail
# B10: 3' 5T FKN-S2 Amphiphile (ssDNA)
# DNA: GGGGTGGGTGGGGGGCACGTGTGGGGGCGGCCAGGGTGCTTTTTT
# modifications: 3' C16 dialkyl tail
# B11: 5' 10T FKN-S2 Amphiphile (ssDNA)
# DNA: TTTTTTTTTTGGGGTGGGTGGGGGGCACGTGTGGGGGCGGCCAGGGTGCT
# modifications: 5' C16 dialkyl tail
# B12: FKN-S2c (ssDNA)
# DNA: GGGTGGGGGGCACGTGTGGGGGCGGCCAGG
# B13: FKN-S2b (ssDNA)
# DNA: GGGGTGGGTGGGGGGCACGTGTGGGGGCGGCCAGG
# B14: random 40-mer (ssDNA)
# DNA: CTATCGGCGACATGAACTTTGGCAAGGGCATCTGGTCCAT
# B15: FKN-S2 (ssDNA)
# DNA: B2 DNA
# B16: scrambled FKN-S2 (ssDNA)
# DNA: GTTGGGATGAGGGTGGGCGGGCGCGGCGGCTGGGGGTCGG
# B17: 5',3' 10T FKN-S2 Aptamer (ssDNA)
# DNA: TTTTTTTTTTGGGGTGGGTGGGGGGCACGTGTGGGGGCGGCCAGGGTGCTTTTTTTTTTT
# B18: 3' 10T FKN-S2 Aptamer (ssDNA)
# DNA: B1 DNA
# B19: 3' 1T FKN-S2 Aptamer (ssDNA)
# DNA: GGGGTGGGTGGGGGGCACGTGTGGGGGCGGCCAGGGTGCTT
# B20: 3' 5T FKN-S2 Aptamer (ssDNA)
# DNA: B10 DNA
# B21: 5' 10T FKN-S2 Aptamer (ssDNA)
# DNA: B11 DNA
# Molecular target: T2, fractalkine (CX3CL1) (Homo sapiens, UniProt P78423 P78423:25-339)
# Test: competition; vs radiolabeled FKN-S2, 0.1 nM FKN, PBS
# Conditions: tags: C-terminal polyhistidine; chemokine domain + mucin-like stalk; R&D Systems 365-FR-025
# Method: (§1) IC₅₀ Binding Assay. FKN-S2 aptamer was labeled on the 5′ end with a radioactive phosphorous (³²P) using a T4 kinase. Unlabeled aptamer amphiphile was serially diluted in binding buffer composed of PBS with BSA, Poly(dA:dT) and radio-labeled FKN-S2 (generally less than 0.05 nM; ≈20,000 count per minute per well) and unlabeled FKN-S2 (1 nM). This ensured each aptamer dilution contained an identical concentration of FKN-S2. Fractalkine (0.1 nM) or BSA was added to each dilution and the aptamer was allowed to bind for 1 hour at room temperature. Each solution was then filtered though a nitrocellulose membrane where the fractalkine:aptamer complex was captured and non-bound aptamer was removed by washing the membrane three times with PBS. The membrane was then exposed to a phosphor film overnight and imaged. The binding was quantified using imageJ and the data fit to a binding equation to determine the IC₅₀.
# Effect of the Spacer on Binding Affinity. […] Radiolabeled FKN-S2 aptamer and unlabeled aptamer-amphiphile were incubated with fractalkine for 1 hour and the aptamer:fractalkine complex collected by filtration through a nitrocellulose membrane. The concentration at which 50% of the aptamer is displaced by the unlabeled competitor is the IC₅₀ value.
# T2 sequence (P78423 25-339, one chain of several): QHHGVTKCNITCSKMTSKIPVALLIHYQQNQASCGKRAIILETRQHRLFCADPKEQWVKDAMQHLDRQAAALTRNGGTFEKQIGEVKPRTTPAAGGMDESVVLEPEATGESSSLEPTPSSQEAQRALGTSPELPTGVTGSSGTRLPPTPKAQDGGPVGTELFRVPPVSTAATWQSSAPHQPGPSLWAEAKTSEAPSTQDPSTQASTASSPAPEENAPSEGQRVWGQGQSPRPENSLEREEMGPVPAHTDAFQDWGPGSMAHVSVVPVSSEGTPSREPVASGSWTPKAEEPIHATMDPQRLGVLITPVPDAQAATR
row,Binder,IC50 [nM]
1,B1,21.8
2,B2,75.6
3,B3,81.6
4,B4,68.6
5,B5,49.6
6,B6,65.7
7,B7,73.5
8,B8,47.5
9,B9,24.8
10,B10,37.6
11,B11,55.1

# Molecular target: T2, fractalkine (CX3CL1)
# Test: competition; vs radiolabeled FKN-S2
# Conditions: tags: C-terminal polyhistidine; chemokine domain + mucin-like stalk; R&D Systems 365-FR-025
# Method: FKN-S2 contains 40 nucleotides and we investigated if truncation of the aptamer would result in sequences with similar affinity to fractalkine but with fewer nucleotides. Three truncated versions of the FKN-S2 aptamer were synthesized with five nucleotides removed from the 5′ end (FKN-S2a), five from the 3′ end (FKN-S2b) and five from each end (FKN-S2c). Additionally, a random 40-mer (5′-[…] (SEQ ID NO:4)) was used as a control. The relative affinities of the truncated aptamers were tested using a heterogeneous competition assay with radiolabeled full length FKN-S2 (FIG. 4). IC₅₀ values (the concentration of 50% reduction in binding) were determined by non-linear regression fitting of the data to the binding equation given in herein and the values are shown in Table 1.
# Truncated FKN-S2 Aptamer Competitive Binding Assay. […] 1 nM of unlabeled FKN-S2 and 5,000 cpm/μL (counts per minute/μL) of radio-labeled full length FKN-S2 were heat denatured and snap cooled before addition to either fractalkine or a BSA control at a concentration of 0.1 nM and incubated for 1 hour at room temperature. The solutions were filtered through a nitrocellulose membrane and exposed to a storage phosphor film overnight and imaged. The binding was quantified using ImageJ and the Dot Blot Analyzer plug-in. Data was fit using the non-linear regression program Origin 8 to the equation
row,Binder,IC50 [nM]
1,B12,> 100000
2,B13,5410
3,B14,> 100000

# Molecular target: T2, fractalkine (CX3CL1)
# Test: filter; homologous competition; 25 pM FKN, PBS pH 7.4, poly dA:dT, BSA, room temp
# Conditions: tags: C-terminal polyhistidine; chemokine domain + mucin-like stalk; R&D Systems 365-FR-025; label: 5' 32P; parallel G-quartet and B-form features by CD
# Method: The dissociation constant of FKN-S2 for fractalkine was determined using a radioactive homologous competition filter binding assay. Dilutions of unlabeled FKN-S2 aptamer were mixed with a constant concentration of ³²P ATP labeled FKN-S2. The dilutions were then incubated with 25 pM fractalkine for 1 hour at room temperature. […] Bound aptamer was collected by filtration through a nitrocellulose membrane and the dissociation constant determined by non-linear regression analysis.
# All binding experiments occurred in binding buffer composed of PBS with 0.5 μg/mL poly dA:dT and 50 μg/mL bovine serum albumin (BSA), pH 7.4. Unlabeled full length FKN-S2 aptamer was diluted in binding buffer and a constant concentration of radiolabeled full length FKN-S2 aptamer added to each dilution. Full length fractalkine or an equivalent concentration of BSA was diluted in binding buffer to 50 pM. Aptamer and fractalkine/BSA was incubated for 1 hour at room temperature. Following incubation, samples were filtered through a nitrocellulose membrane using a bio-rad dot blot apparatus. Each well was washed 3 times with 200 μL of PBS to remove unbound aptamer. The membrane was dried and exposed to a storage phosphor screen overnight and imaged (Packard Cyclone). Binding was quantified using ImageJ and the Dot Blot Analyzer plug-in. The data was fit to the following equation
row,Binder,Kd [nM]
1,B15,3.4

# Molecular target: T2, fractalkine (CX3CL1)
# Test: filter; 1-10 nM aptamer; PBS pH 7.4, BSA, poly dA:dT
# Conditions: tags: C-terminal polyhistidine; chemokine domain + mucin-like stalk; R&D Systems 365-FR-025; label: 32P
# Method: Anti-fractalkine Antibody Blocking Assay. Unlabeled FKN-S2 and scrambled FKN-S2 aptamer (sequence 5′-[…] […], SEQ ID NO:7) were diluted to 10 nM in binding buffer (PBS with 50 μg/mL BSA and 2.5 μg/mL Poly (dA:dT); pH 7.4). Approximately 75,000 cpm/well of radio-labeled aptamer was added and the samples were diluted to 5 and 1 nM. Each dilution was heat denatured and snap cooled. Full length fractalkine was diluted to 0.25 nM and approximately 100 nM of anti-chemokine domain antibody (FKN Ab) was added and allowed to bind for 30 minutes at room temperature. The aptamer was added to the protein solution and incubated at room temperature for 30 minutes. Bound aptamer was collected by filtering the samples thorough at nitrocellulose membrane and signal captured with a phosphor film and imaged. The background binding signal was removed from the FKN and FKN Ab+FKN samples by subtracting the signal from a well containing an identical concentration of BSA without FKN or FKN Ab. Binding was quantified using ImageJ.
row,Binder,binding result
1,B16,no binding

# Molecular target: T2, fractalkine (CX3CL1)
# Test: competition; vs radiolabeled FKN-S2
# Conditions: tags: C-terminal polyhistidine; chemokine domain + mucin-like stalk; R&D Systems 365-FR-025
# Remark: another data set of the same source
# Method: as §1
# We hypothesized that the improvement in affinity of the 3′ 10T FKN-S2 amphiphile may be due either to a spacer effect, where the spacer increases the distance between the aptamer and the tail, or due to an improvement in the affinity of the aptamer itself. To investigate the effect of the 10T spacer on the aptamer affinity, we measured the IC₅₀ values of the FKN-S2 aptamer with different nucleotide spacers (Table 3).
row,Binder,IC50 [nM]
1,B17,2.7
2,B18,3.6
3,B19,9.2
4,B20,3.4
5,B21,8.7

# Molecular target: T1, CXCL16
# Test: filter; 0.2 nM protein; PBS pH 7.4, room temp
# Conditions: tags: PeproTech 300-55; label: 5' 32P; parallel G-quartet and B-form features by CD
# Method: (§2) FKN-S2 was labeled with γ-³²P ATP using a T4 polynucleotide kinase as described in the FKN-S2 Aptamer Homologous Competitive Binding Assay section. Unlabeled FKN-S2 aptamer and 10⁶ counts per minute of radiolabeled FKN-S2 aptamer were mixed in binding buffer (PBS with 50 μg/mL BSA and 2.5 μg/mL Poly (dA:dT); pH 7.4) and the aptamer was denatured at 95° C. for 5 minutes followed by snap cooling in ice water for 5 minutes. The aptamer was then serial diluted in binding buffer and the dilutions added to full length fractalkine, heat-denatured fractalkine and chemokines CCL8 (PeproTech Catalog Number 300-15) and CXCL16 (PeproTech Catalog Number 300-55). All proteins were at a concentration of 0.2 nM. Fractalkine was denatured by heating to 95° C. for 10 minutes followed by incubation on ice until use. The aptamer and protein were incubated for 1 hour at room temperature. Bound aptamer was collected by filtering the samples thorough at nitrocellulose membrane and signal captured with a phosphor film and imaged. The background was measured from wells containing an identical concentration of BSA without the protein. Binding was quantified using ImageJ. […] The binding that was seen may be due to incomplete denaturing or refolding of fractalkine during the experiment.
row,Binder,binding result
1,B15,no binding

# Molecular target: CCL8 (UniProt P80075 P80075:24-99)
# Test: filter; 0.2 nM protein; PBS pH 7.4, room temp
# Conditions: tags: PeproTech 300-15; label: 5' 32P; parallel G-quartet and B-form features by CD
# Method: as §2
# Chain of CCL8 (P80075 24-99, one chain of several): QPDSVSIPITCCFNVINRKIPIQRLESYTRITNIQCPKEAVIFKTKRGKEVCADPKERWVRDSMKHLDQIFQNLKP
row,Binder,binding result
1,B15,no binding

# Molecular target: T2, fractalkine (CX3CL1)
# Test: competition; vs radiolabeled FKN-S2, filter binding, PBS pH 7.4; Table 2 gives 8.6±0.3 nM (n=9)
# Conditions: tags: C-terminal polyhistidine; chemokine domain + mucin-like stalk; R&D Systems 365-FR-025; label: 5' 32P; parallel G-quartet and B-form features by CD
row,Binder,IC50 [nM]
1,B15,9.5

# Reference: patent US20130123347, “FRACTALKINE BINDING POLYNUCLEOTIDES AND METHODS OF USE” (published 2013)
